Laboratory results from the supplement of paper PMC7125110.
± gives the standard error. For some assays here: Variants at the floor of the assay were thinned out.

B1: glmS ribozyme (parent)
chain: AUAAAAGCGCCAGAACUACAGAAAUGUAGUUGACGAGGAGGAGGUUUAUCGAAUUUUCGGCGGAUGCCUCCAAA

How the values were obtained:
Details in all cases: with glucosamine-6-phosphate
glucosamine-6-phosphate [1] = variants of: B1; assay: kcat; higher = faster cleavage; RNA array
Procedure, shortened: (§1)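 Tracking of barcoded ribozyme variants used a hybridised Cy3 probe at 37 °C, after in situ transcription by E. coli RNA polymerase on sequenced MiSeq chips. The flowed solution held 40 μM to 10 mM glucosamine-6-phosphate in HEPES/KCl/Mg(OAc)2 buffer, and imaging ran over ~14 h. kobs was taken from exponential decay fits of normalised per-tile medians, and kcat and KM from weighted Michaelis–Menten fits.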

glucosamine-6-phosphate [2] = variants of: B1; assay: KM; higher = weaker cofactor use; RNA array
Procedure, shortened: as §1

glucosamine-6-phosphate [3] = variants of: B1; assay: self-cleavage kobs at 40 uM GlcN6P; higher = faster cleavage; RNA array
Procedure, shortened: as §1

glucosamine-6-phosphate [4] = variants of: B1; assay: self-cleavage kobs at 160 uM GlcN6P; higher = faster cleavage; RNA array
Procedure, shortened: as §1

glucosamine-6-phosphate [5] = variants of: B1; assay: self-cleavage kobs at 640 uM GlcN6P; higher = faster cleavage; RNA array
Procedure, shortened: as §1

glucosamine-6-phosphate [6] = variants of: B1; assay: self-cleavage kobs at 2500 uM GlcN6P; higher = faster cleavage; RNA array
Procedure, shortened: as §1

glucosamine-6-phosphate [7] = variants of: B1; assay: self-cleavage kobs at 10000 uM GlcN6P; higher = faster cleavage; RNA array
Procedure, shortened: as §1

| Variant | kcat (glucosamine-6-phosphate [1]) [s⁻¹] | KM (glucosamine-6-phosphate [2]) [µM] | self-cleavage kobs at 40 uM GlcN6P (glucosamine-6-phosphate [3]) [s⁻¹] | self-cleavage kobs at 160 uM GlcN6P (glucosamine-6-phosphate [4]) [s⁻¹] | self-cleavage kobs at 640 uM GlcN6P (glucosamine-6-phosphate [5]) [s⁻¹] | self-cleavage kobs at 2500 uM GlcN6P (glucosamine-6-phosphate [6]) [s⁻¹] | self-cleavage kobs at 10000 uM GlcN6P (glucosamine-6-phosphate [7]) [s⁻¹] |
| --- | --- | --- | --- | --- | --- | --- | --- |
| AUAAAAGCGCCAGAACUACAGAAAUGUAGUUGACGAGGAGGAGGUUUAUCGAGUUUUCGGCGGAUUCCUCCAAA [A53G G66U] | 0.00201 ± 0.0004 | 1650 ± 540 | 4.34e-05 ± 8.5e-06 | 0.000168 ± 3.4e-05 | 0.00056 ± 7.9e-05 | 0.00179 ± 0.00022 | 0.00154 ± 0.00019 |
| AUAAAAGCGCCAGAACUACAGAAAUGUAGUUGACGAGGAGGAGGUUUAUCGAGUUUUCGGCGGAUGCCGCCAAA [A53G U69G] | 6.03e-05 ± 8.2e-06 | – | 5.96e-05 ± 1e-05 | 0.000101 ± 1.8e-05 | 6.89e-05 ± 1.2e-05 | 5.73e-05 ± 9.6e-06 | 5.13e-05 ± 8e-06 |
| AUAAAAGCGCCAGAACUACAGAAAUGUAGUUGACGAGGAGGAGGUUUAUCGAUUUUUCGGCGGGUGCCUCCAAA [A53U A64G] | 0.0234 ± 0.0024 | 1970 ± 260 | 0.000491 ± 6.1e-05 | 0.00148 ± 0.00041 | 0.00551 ± 0.0013 | 0.0138 ± 0.0041 | 0.0195 ± 0.0038 |
| AUAAAAGCGCCAGAACUACAGAAAUGUAGUUGACGAGGAGGAGGUUUAUCGAGUCUUCGGCGGAUGCCUCCAAA [A53G U55C] | 0.0183 ± 0.0057 | 1230 ± 510 | 0.000669 ± 7.9e-05 | 0.00157 ± 0.00027 | 0.00872 ± 0.0013 | 0.0106 ± 0.0024 | 0.0167 ± 0.0032 |
| AUAAAAGCGCCAGAACUACAGAAAUGUAGUUGACGAGGAGGAGGUUUAUCGAGUAUUCGGCGGAUGCCUCCAAA [A53G U55A] | 0.0853 ± 0.029 | 3480 ± 1400 | 0.00112 ± 0.00013 | 0.00332 ± 0.00069 | 0.0112 ± 0.002 | 0.0611 ± 0.023 | 0.065 ± 0.014 |
| AUAAAAGCGCCAGAACUACAGAAAUGUAGUUGACGAGGAGGAGGUUUAUCGAGUGUUCGGCGGAUGCCUCCAAA [A53G U55G] | 0.0437 ± 0.021 | – | 0.0007 ± 8.8e-05 | 0.00323 ± 0.0008 | 0.00936 ± 0.0021 | 0.0152 ± 0.0045 | 0.0622 ± 0.015 |
| AUAAAAGCGCCAGAACUACAGAAAUGUAGUUGACGAGGAGGAGGUUUAUCGAGUUUUCGGCGGAUGGCUCCAAA [A53G C67G] | 0.007 ± 0.0028 | – | 0.000155 ± 1.6e-05 | 0.000304 ± 4.6e-05 | 0.00225 ± 0.00035 | 0.00466 ± 0.00096 | 0.00539 ± 0.00069 |
| AUAAAAGCGCCAGAACUACAGAAAUGUAGUUGACGAGGAGGAGGUUUAUCGAGUUUGCGGCGGAUGCCUCCAAA [A53G U57G] | 5.45e-05 ± 1.2e-06 | 1880 ± 180 | – | – | – | 3.07e-05 ± 1.4e-05 | 4.6e-05 ± 8.2e-06 |
| AUAAAAGCGCCAGAACUACAGAAAUGUAGUUGACGAGGAGGAGGUUUAUCGAGUUUUCGGCGGGUGCCUCCAAA [A53G A64G] | 0.0648 ± 0.023 | 2430 ± 1000 | 0.00117 ± 0.00012 | 0.00264 ± 0.00067 | 0.0149 ± 0.0022 | 0.0373 ± 0.01 | 0.0493 ± 0.012 |
| AUAAAAGCGCCAGAACUACAGAAAUGUAGUUGACGAGGAGGAGGUUUAUCGAGUUUUCGGCGGAUGCCUGCAAA [A53G C70G] | 0.000195 ± 1.8e-05 | – | 0.000132 ± 2.3e-05 | 0.000309 ± 9.5e-05 | 0.000196 ± 2.9e-05 | 0.000173 ± 2.5e-05 | 0.000215 ± 3.6e-05 |
| AUAAAAGCGCCAGAACUACAGAAAUGUAGUUGACGAGGAGGAGGUUUAUCGAGUUUUCGACGGAUGCCUCCAAA [A53G G60A] | 2.61e-05 ± 9.4e-06 | – | – | – | – | 3.68e-05 ± 1e-05 | 1.88e-05 ± 8.7e-06 |
| AUAAAAGCGCCAGAACUACAGAAAUGUAGUUGACGAGGAGGAGGUUUAUCGAUUUUUAGGCGGAUGCCUCCAAA [A53U C58A] | 0.000327 ± 1.5e-05 | 3010 ± 250 | – | – | 5.94e-05 ± 5.9e-06 | 0.000143 ± 1.3e-05 | 0.000256 ± 2.2e-05 |
| AUAAAAGCGCCAGAACUACAGAAAUGUAGUUGACGAGGAGGAGGUUUAUCGACUUUUCGGCGGAAGCCUCCAAA [A53C U65A] | 0.000359 ± 3.3e-05 | 1720 ± 320 | – | 3.15e-05 ± 1e-05 | 9.23e-05 ± 1.4e-05 | 0.00025 ± 3.8e-05 | 0.000294 ± 3.7e-05 |
